Source: the Immune Epitope Database (IEDB)

Key:
HLA-A*30:02 = test: IEDB peptide-MHC binding, purified MHC/competitive/radioactivity; filed as Kd, often an IC50 or EC50 that approximates it; ≥ and ≤ were set here for values at or beyond the usual limits of such assays
HLA-A*24:02 = test: as above
HLA-A*32:01 = test: as above
HLA-B*44:02 = test: as above
HLA-A*01:01 = test: as above
HLA-A*11:01 [1] = test: IEDB peptide-MHC binding, purified MHC/direct/fluorescence; filed as Kd, often an IC50 or EC50 that approximates it; ≥ and ≤ were set here for values at or beyond the usual limits of such assays
HLA-A*23:01 = test: IEDB peptide-MHC binding, purified MHC/competitive/radioactivity; filed as Kd, often an IC50 or EC50 that approximates it; ≥ and ≤ were set here for values at or beyond the usual limits of such assays
HLA-A*26:01 = test: as above
HLA-A*69:01 = test: IEDB peptide-MHC binding, purified MHC/direct/fluorescence; filed as Kd, often an IC50 or EC50 that approximates it; ≥ and ≤ were set here for values at or beyond the usual limits of such assays
HLA-A*02:01 = test: as above
HLA-B*15:01 = test: as above
HLA-A*02:03 = test: IEDB peptide-MHC binding, purified MHC/competitive/radioactivity; filed as Kd, often an IC50 or EC50 that approximates it; ≥ and ≤ were set here for values at or beyond the usual limits of such assays; conditions: source organism: Vaccinia virus WR
HLA-A*02:02 = test: as above; conditions: source organism: Vaccinia virus WR
HLA-A*02:06 = test: as above; conditions: source organism: Vaccinia virus WR
HLA-A*11:01 [2] = test: as above; conditions: source organism: Dengue virus 1 Brazil/97-11/1997
HLA-A*03:01 = test: IEDB peptide-MHC binding, purified MHC/direct/fluorescence; filed as Kd, often an IC50 or EC50 that approximates it; ≥ and ≤ were set here for values at or beyond the usual limits of such assays; conditions: source organism: Clostridium botulinum
[3] = source organism: Dengue virus 2 Jamaica/1409/1983
[4] = source organism: Dengue virus 4 Philippines/H241/1956
[5] = source organism: Dengue virus 1 Brazil/97-11/1997
[6] = source organism: Dengue virus 3 Martinique/1243/1999
[7] = source organism: Vaccinia virus WR
[8] = source organism: Salmonella enterica subsp. enterica serovar Typhimurium
[9] = source organism: Dengue virus 2 Peru/IQT2913/1996
[10] = source organism: Pseudomonas aeruginosa
[11] = source organism: Mammarenavirus brazilense
[12] = source organism: Dengue virus 1 Nauru/West Pac/1974
[13] = source organism: Rickettsia conorii
[14] = source organism: Cryptosporidium parvum

## AALLLLVAHY
HLA-A*30:02; [3]
  Kd: 10500 nM

## AFLPWHRLF
HLA-A*24:02; source organism: Homo sapiens
  Kd: 20 nM

## AGILKRWGQL
HLA-A*32:01; [4]
  Kd: 4440 nM

## AICSAVPVDW
HLA-B*44:02; [5]
  Kd: 893 nM

## ASDRMGMGV
HLA-A*01:01; [6]
  Kd: 1370 nM

## ATFLWWIPL
HLA-A*11:01 [1]; source organism: Bacillus anthracis
  Kd: 12.4 nM

## AYMIGQTGI
HLA-A*24:02; [4]
  Kd: 93 nM

## CNLTSAWVMY
HLA-A*30:02; [4]
  Kd: 554 nM

## DFKGKTVWF
HLA-A*23:01; [3]
  Kd: 14400 nM

## DINFITVNI
HLA-A*32:01; [7]
  Kd: 424 nM

## DMCDIYLLY
HLA-A*24:02; [7]
  Kd: 2070 nM
HLA-A*23:01; [7]
  Kd: 216 nM

## EAILPEYGTL
HLA-A*26:01; [6]
  Kd: 13900 nM

## EEKLSVVLF
HLA-B*44:02; source organism: Homo sapiens
  Kd: 143 nM

## EHALLATSIF
HLA-A*26:01; [5]
  Kd: ≥ 22400 nM
HLA-A*23:01; [5]
  Kd: 4610 nM

## ELLSHVGQA
HLA-A*69:01; [8]
  Kd: 63.1 nM
HLA-A*02:01; [8]
  Kd: 3590 nM

## ETLLLLTLLA
HLA-A*26:01; [3]
  Kd: ≥ 22700 nM

## EVTARWLWGF
HLA-A*26:01; source organism: Dengue virus 1 Singapore/S275/1990
  Kd: 32.7 nM

## EYPKTKLTDW
HLA-A*24:02; [4]
  Kd: 954 nM
HLA-A*23:01; [4]
  Kd: 2550 nM

## EYQKTKNNDW
HLA-A*24:02; [5]
  Kd: 19700 nM
HLA-A*23:01; [5]
  Kd: ≥ 33600 nM

## EYVKTRTNDW
HLA-A*24:02; [9]
  Kd: 2170 nM
HLA-A*23:01; [9]
  Kd: 3410 nM

## FHMDPSGTF
HLA-B*15:01; source organism: Homo sapiens
  Kd: 465 nM
HLA-A*02:01; source organism: Homo sapiens
  Kd: 14400 nM

## FTNMEAQLV
HLA-A*01:01; source organism: Dengue virus 3 Sri Lanka/1266/2000
  Kd: 403 nM

## GPISTLWEGN
HLA-A*32:01; [3]
  Kd: 9040 nM

## GSPGKFWNTT
HLA-A*32:01; [5]
  Kd: ≥ 25700 nM

## GVFKVWHPI
HLA-A*69:01; [10]
  Kd: 1340 nM
HLA-A*02:01; [10]
  Kd: 5720 nM
HLA-A*11:01 [1]; [10]
  Kd: 6490 nM

## GVPPLPLFIF
HLA-A*24:02; [6]
  Kd: 494 nM

## GVSGGSWVDI
HLA-A*32:01; [3]
  Kd: 4310 nM

## GYKETPFLT
HLA-A*26:01; [11]
  Kd: ≥ 77900 nM
HLA-A*30:02; [11]
  Kd: ≥ 76900 nM
HLA-A*01:01; [11]
  Kd: ≥ 65200 nM

## IFGTAYGVLF
HLA-A*24:02; [12]
  Kd: 37.6 nM
HLA-A*23:01; [12]
  Kd: 10.4 nM

## IIIFFIVLI
HLA-A*32:01; [7]
  Kd: 13.7 nM

## IIMFDAEKL
HLA-B*15:01; [13]
  Kd: 3350 nM
HLA-A*69:01; [13]
  Kd: 1110 nM

## IINKFFEVI
HLA-A*32:01; [7]
  Kd: 11.1 nM

## IISYIILFI
HLA-A*02:03
  Kd: 58.7 nM
HLA-A*02:02
  Kd: 2.78 nM
HLA-A*32:01; [7]
  Kd: ≥ 27600 nM
HLA-A*02:06
  Kd: 27.1 nM

## IQRDQVTDY
HLA-B*15:01; [8]
  Kd: 239 nM

## ITINYFLLL
HLA-A*32:01; [7]
  Kd: ≥ 77800 nM

## ITISEDGSM
HLA-A*26:01; [3]
  Kd: 2990 nM

## KALKLSWFKK
HLA-A*11:01 [2]
  Kd: 135 nM
HLA-A*32:01; [5]
  Kd: 9280 nM

## KILLVAVSI
HLA-A*32:01; source organism: Vaccinia virus Copenhagen
  Kd: 1.54 nM

## KINNFANEF
HLA-A*32:01; [7]
  Kd: 2.08 nM

## KLALITVSG
HLA-A*32:01; [4]
  Kd: 82.8 nM

## KMFNSVGGA
HLA-A*69:01; [14]
  Kd: ≥ 20000 nM
HLA-A*02:01; [14]
  Kd: 26 nM

## KYLYLWSFK
HLA-A*03:01
  Kd: 167 nM

## LFKTNTGTI
HLA-A*24:02; [3]
  Kd: 1280 nM

## LKIVRNMEKY
HLA-A*30:02; [3]
  Kd: 55.2 nM

## LTARATWATN
HLA-A*32:01; [5]
  Kd: ≥ 44400 nM

## LTSKELMMA
HLA-A*01:01; [3]
  Kd: 5730 nM

## MEKYQLAVTI
HLA-B*44:02; [3]
  Kd: 331 nM

## MTGTLAVFLL
HLA-A*01:01; [5]
  Kd: ≥ 34600 nM

## NACDKHNKT
HLA-A*02:03
  Kd: 9250 nM
HLA-A*02:02
  Kd: 17900 nM
HLA-A*02:06
  Kd: 18600 nM

## NALKINWYKK
HLA-A*32:01; [6]
  Kd: 2140 nM

## NGVVTKNGGY
HLA-A*30:02; [6]
  Kd: 15500 nM

## NKAWMVHRQW
HLA-B*44:02; [6]
  Kd: 12600 nM

## NRKGKVIGLY
HLA-A*30:02; [4]
  Kd: 109 nM

## NVSRVVECL
HLA-A*02:03
  Kd: 938 nM
HLA-A*02:02
  Kd: 133 nM
HLA-A*02:06
  Kd: 1030 nM

## NVTYNIKPV
HLA-A*02:03
  Kd: 153 nM
HLA-A*02:02
  Kd: ≥ 22800 nM
HLA-A*02:06
  Kd: 855 nM

## PISDYSAEV
HLA-A*02:03
  Kd: 267 nM
HLA-A*02:02
  Kd: 716 nM
HLA-A*02:06
  Kd: 2800 nM

## PLIISTDQDT
HLA-A*02:03
  Kd: ≥ 35600 nM
HLA-A*02:02
  Kd: ≥ 45000 nM
HLA-A*02:06
  Kd: ≥ 47400 nM

## PLPCQLMYAL
HLA-A*02:03
  Kd: 8710 nM
HLA-A*02:02
  Kd: 163 nM
HLA-A*02:06
  Kd: 9810 nM

## PTEMVDVSM
HLA-A*02:03
  Kd: ≥ 41300 nM
HLA-A*02:02
  Kd: 10600 nM
HLA-A*02:06
  Kd: ≥ 40200 nM

## PTPKKMNIVT
HLA-A*02:03
  Kd: ≥ 55700 nM
HLA-A*02:02
  Kd: ≥ 65800 nM
HLA-A*02:06
  Kd: ≥ 69800 nM

## QTLISLNSM
HLA-A*02:03
  Kd: ≥ 39300 nM
HLA-A*02:02
  Kd: 19400 nM
HLA-A*02:06
  Kd: 7510 nM

## RAAIDRQVSV
HLA-A*02:03
  Kd: 40.8 nM
HLA-A*02:02
  Kd: 626 nM
HLA-A*02:06
  Kd: 212 nM
